The target in the assay is recombinant hsc70 (Stressgen, Victoria, Canada). The experiment in a line: competition ELISA on coated hsc70 against biotinylated-2702.75-84 (3 uM). (In general: ELISA stands for enzyme-linked immunosorbent assay.)

The IC50 is the point on the concentration scale where inhibition reaches its midpoint.

Where no end group is shown, it is not given here.

As to RENLRIALRY-NH2 (also: acetate salt) [peptide 2702.75-84], the IC50 came out at 7 µM.
